Data on four compounds can be found in article PMC4990422, “Coupling between the DEAD-box RNA helicases Ded1p and eIF4A” (eLife, 2016).

What is called stoichiometry N is a count of units in the complex or per binding partner. Usually Kd stands for the constant that tells how readily two partners part at equilibrium.

The target of assay [1] is Ded1p (wild type, N-terminal His6-tag) (S. cerevisiae) (UniProt P06634). Nature of the assay: cross-linking; formaldehyde 1% (v/v), 30 min, room temperature; Ded1p 0.3 µM, eIF4A 2 µM or as indicated, RNA 2 µM (16 bp, 25 nt 3'-overhang), 0.5 mM ADPNP-MgCl2, unwinding buffer; Western blot with α-Ded1p. A general note: In western blotting, separated proteins are transferred to a membrane and probed.

Assay [2] has as its target eIF4G-eIF4E complex (Saccharomyces cerevisiae) (UniProt P39935). The settings on record: cited from earlier work.
Assay [3] addresses T1, Ded1p-eIF4A-eIF4G (Saccharomyces cerevisiae, UniProt P06634).
T1 construct: gene DED1; His6-Ded1p, His6-eIF4A, GST-S-tag-eIF4G1-His; eIF4G preparation contains eIF4E; with ATP-dependent RNA helicase eIF4A; Eukaryotic initiation factor 4F subunit p150; Eukaryotic translation initiation factor 4E
Nature of the assay: global fit of thermodynamic model to RNA unwinding data. It counts as biochemical. The note with it: unwinding reactions, RNA 16 bp with 25 nt 3' overhang; fitted with energy-conservation constraints; RNA-bound complex; some ATP constants given only as limits.

Assay [4] concerns the target T2, eIF4A (S. cerevisiae) (UniProt P10081).
T2 sequence: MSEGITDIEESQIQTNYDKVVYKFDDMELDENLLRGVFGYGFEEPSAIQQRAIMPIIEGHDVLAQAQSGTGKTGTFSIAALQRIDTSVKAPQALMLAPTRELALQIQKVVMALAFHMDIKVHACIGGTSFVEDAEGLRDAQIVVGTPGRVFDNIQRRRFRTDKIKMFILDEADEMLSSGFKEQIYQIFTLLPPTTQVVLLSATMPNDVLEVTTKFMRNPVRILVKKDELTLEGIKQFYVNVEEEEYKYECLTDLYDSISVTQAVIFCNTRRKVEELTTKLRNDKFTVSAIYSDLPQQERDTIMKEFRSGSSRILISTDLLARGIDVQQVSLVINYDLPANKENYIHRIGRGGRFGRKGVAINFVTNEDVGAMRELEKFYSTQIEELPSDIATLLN
Nature of the assay: global fit of RNA unwinding time courses to a thermodynamic model; K1/2 of a binding step calculated with the model of Figure 4A; step without RNA, ATP bound to Ded1p.

Assay [5] deals with T2, eIF4A (S. cerevisiae). Nature of the assay: global fit of RNA unwinding time courses to a thermodynamic model; K1/2 of a binding step calculated with the model of Figure 4A; step without RNA, ATP bound to eIF4A.
The target of assay [6] is T2, eIF4A (S. cerevisiae). Nature of the assay: global fit of RNA unwinding time courses to a thermodynamic model; K1/2 of a binding step calculated with the model of Figure 4A; RNA bound to the target before the step, no ATP.
For assay [7], the target named is T2, eIF4A (S. cerevisiae). Nature of the assay: global fit of RNA unwinding time courses to a thermodynamic model; K1/2 of a binding step calculated with the model of Figure 4A; RNA bound to the binder before the step, no ATP.
Assay [8] has as its target T2, eIF4A (S. cerevisiae). Nature of the assay: global fit of RNA unwinding time courses to a thermodynamic model; K1/2 of a binding step calculated with the model of Figure 4A; step without RNA, ATP bound to Ded1p and to eIF4A.
In assay [9] the target is T2, eIF4A (S. cerevisiae). Nature of the assay: global fit of RNA unwinding time courses to a thermodynamic model; K1/2 of a binding step calculated with the model of Figure 4A; RNA bound to the target before the step, ATP bound to Ded1p.
For assay [10], the target named is T2, eIF4A (S. cerevisiae). Nature of the assay: global fit of RNA unwinding time courses to a thermodynamic model; K1/2 of a binding step calculated with the model of Figure 4A; RNA bound to the binder before the step, ATP bound to Ded1p.
The target in assay [11] is T2, eIF4A (S. cerevisiae). Nature of the assay: global fit of RNA unwinding time courses to a thermodynamic model; K1/2 of a binding step calculated with the model of Figure 4A; RNA bound to the target before the step, ATP bound to eIF4A.
Assay [12] has as its target T2, eIF4A (S. cerevisiae). Nature of the assay: global fit of RNA unwinding time courses to a thermodynamic model; K1/2 of a binding step calculated with the model of Figure 4A; RNA bound to the binder before the step, ATP bound to eIF4A.
Assay [13] concerns the target T2, eIF4A (S. cerevisiae). Nature of the assay: global fit of RNA unwinding time courses to a thermodynamic model; K1/2 of a binding step calculated with the model of Figure 4A; RNA bound to the binder before the step, ATP bound to Ded1p and to eIF4A.
In assay [14] the target is T2, eIF4A (S. cerevisiae). Nature of the assay: global fit of RNA unwinding time courses to a thermodynamic model; K1/2 of a binding step calculated with the model of Figure 4A; RNA bound to the target before the step, ATP bound to Ded1p and to eIF4A.
Assay [15] deals with T2, eIF4A (S. cerevisiae). Nature of the assay: global fit of RNA unwinding time courses to a thermodynamic model; K1/2 of a binding step calculated with the model of Figure 4A (Kintek Global Explorer; 16 bp duplex, 25 nt 3' overhang); step without RNA and without ATP.

Sequence of Ded1p (P06634 whole entry): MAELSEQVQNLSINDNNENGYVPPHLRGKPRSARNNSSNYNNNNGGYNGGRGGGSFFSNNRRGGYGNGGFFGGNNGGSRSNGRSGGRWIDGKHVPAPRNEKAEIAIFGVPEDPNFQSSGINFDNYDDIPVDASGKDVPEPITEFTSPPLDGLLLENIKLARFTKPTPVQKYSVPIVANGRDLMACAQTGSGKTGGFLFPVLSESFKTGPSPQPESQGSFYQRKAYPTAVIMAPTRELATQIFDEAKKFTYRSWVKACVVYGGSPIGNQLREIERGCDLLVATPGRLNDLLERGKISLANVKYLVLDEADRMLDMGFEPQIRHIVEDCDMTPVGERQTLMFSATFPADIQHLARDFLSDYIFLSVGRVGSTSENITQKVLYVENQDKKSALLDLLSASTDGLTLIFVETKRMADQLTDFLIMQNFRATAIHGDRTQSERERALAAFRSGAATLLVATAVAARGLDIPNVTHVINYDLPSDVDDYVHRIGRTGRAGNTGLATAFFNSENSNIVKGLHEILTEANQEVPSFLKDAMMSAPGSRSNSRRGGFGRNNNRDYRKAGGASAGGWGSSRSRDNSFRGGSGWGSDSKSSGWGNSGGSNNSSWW
Sequence of eIF4G-eIF4E complex (Saccharomyces cerevisiae) (P39935 whole entry, chain 1 of 2): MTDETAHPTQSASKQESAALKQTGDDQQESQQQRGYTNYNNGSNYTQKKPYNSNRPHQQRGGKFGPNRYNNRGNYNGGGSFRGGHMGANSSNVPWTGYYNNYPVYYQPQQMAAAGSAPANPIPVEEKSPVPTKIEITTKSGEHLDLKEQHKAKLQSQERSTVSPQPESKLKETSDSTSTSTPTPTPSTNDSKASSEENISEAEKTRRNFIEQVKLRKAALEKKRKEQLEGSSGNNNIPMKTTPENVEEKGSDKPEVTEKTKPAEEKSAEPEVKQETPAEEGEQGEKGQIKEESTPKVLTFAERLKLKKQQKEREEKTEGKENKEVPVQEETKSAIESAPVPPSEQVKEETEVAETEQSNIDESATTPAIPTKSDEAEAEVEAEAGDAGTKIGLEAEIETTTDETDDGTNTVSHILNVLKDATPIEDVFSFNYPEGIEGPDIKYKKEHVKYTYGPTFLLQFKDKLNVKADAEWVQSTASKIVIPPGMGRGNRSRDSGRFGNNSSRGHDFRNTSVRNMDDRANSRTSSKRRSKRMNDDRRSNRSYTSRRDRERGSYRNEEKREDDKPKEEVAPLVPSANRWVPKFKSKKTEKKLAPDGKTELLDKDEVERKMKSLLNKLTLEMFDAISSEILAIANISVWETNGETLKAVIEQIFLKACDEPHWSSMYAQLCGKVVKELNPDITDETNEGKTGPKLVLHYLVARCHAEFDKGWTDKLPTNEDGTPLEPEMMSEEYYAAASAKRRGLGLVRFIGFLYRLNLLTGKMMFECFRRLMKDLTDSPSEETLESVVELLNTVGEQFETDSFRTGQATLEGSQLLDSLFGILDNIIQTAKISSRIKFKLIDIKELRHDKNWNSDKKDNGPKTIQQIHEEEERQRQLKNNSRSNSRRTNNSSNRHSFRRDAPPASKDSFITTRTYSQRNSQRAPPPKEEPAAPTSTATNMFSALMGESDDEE
Sequence of eIF4G-eIF4E complex (Saccharomyces cerevisiae) (P07260 whole entry, chain 2 of 2, further chain): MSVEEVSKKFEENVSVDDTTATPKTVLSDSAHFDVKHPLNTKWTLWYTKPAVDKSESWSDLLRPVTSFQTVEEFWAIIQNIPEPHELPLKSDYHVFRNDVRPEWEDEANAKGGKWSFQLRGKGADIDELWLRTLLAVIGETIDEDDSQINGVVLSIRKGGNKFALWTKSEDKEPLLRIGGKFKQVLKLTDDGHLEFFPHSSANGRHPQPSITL
T1 sequence (P06634 2-604, one chain of several): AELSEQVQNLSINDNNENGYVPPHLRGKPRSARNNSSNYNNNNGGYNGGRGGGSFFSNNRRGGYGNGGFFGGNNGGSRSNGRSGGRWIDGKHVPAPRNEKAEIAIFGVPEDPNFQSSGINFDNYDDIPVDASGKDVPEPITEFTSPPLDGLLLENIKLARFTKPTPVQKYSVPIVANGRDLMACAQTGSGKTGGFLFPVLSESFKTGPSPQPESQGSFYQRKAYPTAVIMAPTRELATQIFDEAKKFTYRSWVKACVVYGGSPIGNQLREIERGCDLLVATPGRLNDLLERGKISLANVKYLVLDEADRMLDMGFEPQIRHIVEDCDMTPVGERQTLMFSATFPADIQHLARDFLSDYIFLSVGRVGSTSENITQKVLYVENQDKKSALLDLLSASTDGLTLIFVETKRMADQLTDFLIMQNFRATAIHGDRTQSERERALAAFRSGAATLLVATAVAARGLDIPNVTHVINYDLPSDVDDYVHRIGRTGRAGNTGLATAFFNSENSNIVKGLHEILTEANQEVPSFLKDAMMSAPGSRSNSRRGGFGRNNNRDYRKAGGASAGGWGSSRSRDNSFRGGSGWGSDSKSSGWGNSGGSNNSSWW
T1 sequence (P39935 whole entry partner, one chain of several): as the sequence (P39935 whole entry, chain 1 of 2) above
Sequence of Ded1p (wild type, N-terminal His6-tag) (P06634 whole entry): as the sequence (P06634 whole entry) above

Compound “Ded1p (wild type, N-terminal His6-tag) (from UniProt P06634 1-604) (enzyme; other documents disagree on this pair)” returned a stoichiometry N in assay [1] of 3.

eIF4A (from UniProt P10081): the Kd in assay [2] was less than 30 nM.

In the case of `Nc1ncnc2c1ncn2[C@@H]1O[C@H](COP(=O)(O)OP(=O)(O)OP(=O)(O)O)[C@@H](O)[C@H]1O` [ATP], the K1/2 entry in [3] was “ATP binding to Ded1p-eIF4G-eIF4A-RNA complex”.

As for “Ded1p (from UniProt P06634 1-604) (enzyme; other documents disagree on this pair)”, the Kd in [4] was 800 nM; in [5], 800 nM; in [6], 45 nM; in assay [7] it was 270 nM; in assay [8] it was 800 nM; in assay [9], 89 nM. The Kd in assay [10] is 710 nM; in assay [11], 45 nM; in assay [12] it was 270 nM; in assay [13] it was 710 nM; in assay [14], 89 nM; in [15] it was 800 nM.
